# Results: the supplement of paper PMC7125110
# ± gives the standard error. For some assays here: Variants at the floor of the assay were thinned out.
# B1: glmS ribozyme (parent)
# chain: AUAAAAGCGCCAGAACUACAGAAAUGUAGUUGACGAGGAGGAGGUUUAUCGAAUUUUCGGCGGAUGCCUCCAAA
# Assays:
# Conditions in all cases: with glucosamine-6-phosphate
# [1] = variants of: B1; experiment: kcat; higher = faster cleavage; RNA array
# Procedure, shortened: (§1)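 kobs was derived by fitting per-tile medians to one- or two-exponential decays after normalising signals to baseline and to non-cleaving reference variants. Those signals came from barcoded ribozyme variants transcribed in situ by E. coli RNA polymerase on sequenced MiSeq chips, followed through a hybridised Cy3 probe at 37 °C and imaged over ~14 h. Glucosamine-6-phosphate (40 μM to 10 mM) in HEPES/KCl/Mg(OAc)2 buffer was flowed in. Weighted Michaelis–Menten fits across concentrations then gave kcat and KM.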
# [2] = variants of: B1; experiment: self-cleavage kobs at 40 uM GlcN6P; higher = faster cleavage; RNA array
# Procedure, shortened: as §1
# [3] = variants of: B1; experiment: self-cleavage kobs at 2500 uM GlcN6P; higher = faster cleavage; RNA array
# Procedure, shortened: as §1
# [4] = variants of: B1; experiment: self-cleavage kobs at 10000 uM GlcN6P; higher = faster cleavage; RNA array
# Procedure, shortened: as §1
# [5] = variants of: B1; experiment: self-cleavage kobs at 640 uM GlcN6P; higher = faster cleavage; RNA array
# Procedure, shortened: as §1
# [6] = variants of: B1; experiment: KM; higher = weaker cofactor use; RNA array
# Procedure, shortened: as §1
# [7] = variants of: B1; experiment: self-cleavage kobs at 160 uM GlcN6P; higher = faster cleavage; RNA array
# Procedure, shortened: as §1
Variant,kcat [1] [s⁻¹],self-cleavage kobs at 40 uM GlcN6P [2] [s⁻¹],self-cleavage kobs at 2500 uM GlcN6P [3] [s⁻¹],self-cleavage kobs at 10000 uM GlcN6P [4] [s⁻¹],self-cleavage kobs at 640 uM GlcN6P [5] [s⁻¹],KM [6] [µM],self-cleavage kobs at 160 uM GlcN6P [7] [s⁻¹]
AUAAAAGCGCCAGAACUACAGAAAUGUAGUUUACGAGGAGGAGGUUUAGCGAAUUUUCGGCGGAUGCCUCCAAA [G32U U49G],5.32e-05 ± 7.1e-06,< 1e-05,4.54e-05 ± 1.2e-05,4.7e-05 ± 6.6e-06,,,
AUAAAAGCGCCAGAACUACAGAAAUGUAGUCGACGAGGAGGAGGUGUAUCGAAUUUUCGGCGGAUGCCUCCAAA [U31C U46G],0.000788 ± 0.00029,,0.000722 ± 0.00013,0.000568 ± 7.8e-05,0.000198 ± 3.6e-05,,
AUAAAAGCGCCAGUACUACAGAAAUGUAGUUGACGAGGAGGAGGUUUAUCGACUUUUCGGCGGAUGCCUCCAAA [A14U A53C],0.00136 ± 0.00017,3.59e-05 ± 9.1e-06,0.000834 ± 7.7e-05,0.00105 ± 0.00014,0.000309 ± 3.9e-05,1970 ± 410,9.57e-05 ± 1.5e-05
AUAAACGCGCCAGAACUACAGAAAUGUAGUUGACGAGGAGGAGGUUUAUCGAAUUUUCGGCGGAGGCCUCCAAA [A6C U65G],2.87e-05 ± 1.5e-06,,,2.71e-05 ± 1.1e-05,,342 ± 150,
AUAAAAGCGCCAGAACUACAGAAAUGUAGUUGACGAGGAGGAGAUGUAUCGAAUUUUCGGCGGAUGCCUCCAAA [G44A U46G],0.000265 ± 5.2e-05,,0.000213 ± 4.4e-05,0.000221 ± 4.7e-05,0.000114 ± 2.6e-05,,
AUAAAAGCGCCAGAACUACAGAAAUGUAGUUGACGAGGAGGAGGUUUAUCGAAUGUUCGGCGGAUUCCUCCAAA [U55G G66U],0.00299 ± 0.00092,4.47e-05 ± 1.7e-05,0.00126 ± 0.00021,0.00195 ± 0.00034,0.00054 ± 0.0001,4240 ± 1800,8.99e-05 ± 1.6e-05
AUAAAAGCGCCAGAACUACAGAAAUGUAGUUGACGAGGAGGGGCUUUAUCGAAUUAUCGGCGGAUGCCUUCAAA [A42G G44C U56A C70U],< 1e-05,,< 1e-05,,,,< 1e-05
AUAAAAGCGCCAGAACUACAGAAAUGUAGUUGACGAGGAGGAGGUUUAUCGAAUUUUCGGCGGAUUCCUCUAAA [G66U C71U],0.00186 ± 0.00045,3.7e-05 ± 8.7e-06,0.00174 ± 0.00026,0.0014 ± 0.00014,0.000471 ± 4.1e-05,2150 ± 760,0.000107 ± 1.4e-05
AUAAAAGCGCCAGAUCUACAGAAAUGUAGUUGACGAGGGGGAGGUUUAUCGAAUUUUCGGCGGAUGCCUCGAAA [A15U A39G C71G],0.000145 ± 6.1e-05,,9.89e-05 ± 3.7e-05,0.000288 ± 0.0001,0.000116 ± 3.5e-05,,
AUAAAAGCGCCAGAACUACAGAAAUGUAGUUGACGAGGAGGAGGUUCAUCGAAUUUUCGGCGGUUGCCUCCAAA [U47C A64U],0.000108 ± 8.5e-06,,9.46e-05 ± 2.2e-05,0.000102 ± 1.2e-05,7.89e-05 ± 1.8e-05,363 ± 170,
AUAAAAGCGCCAGAACUACAGAAAUGUAGUUGACGAGGAGGAGCUUUAUCGAAUUUUCGGCGGAUGCCUCUAAA [G44C C71U],1.52e-05 ± 3.3e-06,,,,,,
AUAAAAGCGCCAGUACUACAGAAAUGUAGUUGACGAGGAGGAGGUUUAUGGAAUUUUCGGCGGAUGCCUCCAAA [A14U C50G],0.000106 ± 3e-05,4.12e-05 ± 1.3e-05,9.1e-05 ± 1.6e-05,0.000112 ± 5e-05,,,0.000164 ± 3e-05
AUAAAAGCGCCAGUACUACAGAAAUGUAGUUGACGAGGAGGAGGUUUAUCGAAUUUUCGGCGGAUGCCUCGAAA [A14U C71G],0.000432 ± 8.9e-05,2.7e-05 ± 9.2e-06,0.000237 ± 3.2e-05,0.000402 ± 4.2e-05,0.000111 ± 1.3e-05,1620 ± 630,5.71e-05 ± 1.1e-05
AUAAAAGCGCCAGAACUACAGAAAUGUAGUUGACGAGGAGGUGGUUUAUCGAAUUUUCGGCGGAUGCUUCCAAA [A42U C68U],0.000347 ± 1.8e-05,,0.000254 ± 5.6e-05,0.000302 ± 3e-05,0.000108 ± 2.4e-05,1360 ± 230,
AUAAAAGCGCCAGAACUACAGAAAUGUAGUUGACGAGGCGGAGGUUUAUCGAAUUUUCGGCGGCUGCCUCCAAA [A39C A64C],4.47e-05 ± 2.7e-06,,4.35e-05 ± 1.6e-05,4.27e-05 ± 1.3e-05,,,< 1e-05
AUAAAAGCGCCAGAACUACAGAAAUGUAGUUGACGAGGAGGAGGUUUAUCGAAUUUUCGGCGGAUAACUCCAAA [G66A C67A],0.00809 ± 0.0018,0.000216 ± 3.4e-05,0.00373 ± 0.00093,0.00873 ± 0.0016,0.00222 ± 0.0004,1620 ± 470,0.000708 ± 0.00012
